Substitutions are numbered along the chain they refer to. In names and notes the source's numbering stands.
T1: LRRC15 on the surface of LRRC15+ cells (SAOS-2, U87MG) (UniProt Q8TF66 22-581, limits assumed)
T1 sequence (looked up): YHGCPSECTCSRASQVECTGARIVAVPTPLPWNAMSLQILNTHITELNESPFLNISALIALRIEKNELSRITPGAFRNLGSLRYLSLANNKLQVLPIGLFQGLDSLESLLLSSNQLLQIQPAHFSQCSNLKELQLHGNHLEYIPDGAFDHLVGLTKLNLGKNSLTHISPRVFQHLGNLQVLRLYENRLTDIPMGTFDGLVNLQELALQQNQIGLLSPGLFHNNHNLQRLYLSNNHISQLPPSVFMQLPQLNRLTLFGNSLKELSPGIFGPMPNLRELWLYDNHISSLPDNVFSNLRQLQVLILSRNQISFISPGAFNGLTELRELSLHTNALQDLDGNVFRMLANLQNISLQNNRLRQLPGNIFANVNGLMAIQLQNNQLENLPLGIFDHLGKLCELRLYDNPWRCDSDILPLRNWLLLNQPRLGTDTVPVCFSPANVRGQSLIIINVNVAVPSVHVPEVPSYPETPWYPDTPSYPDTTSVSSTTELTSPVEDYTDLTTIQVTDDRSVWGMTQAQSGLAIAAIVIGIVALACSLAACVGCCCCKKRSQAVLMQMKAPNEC

T2: Human LRRC15 Protein, His Tag (Acro Biosystems) (human, UniProt Q8TF66 22-538, limits assumed)
T2 construct: not shown: His tag
T2 sequence (looked up): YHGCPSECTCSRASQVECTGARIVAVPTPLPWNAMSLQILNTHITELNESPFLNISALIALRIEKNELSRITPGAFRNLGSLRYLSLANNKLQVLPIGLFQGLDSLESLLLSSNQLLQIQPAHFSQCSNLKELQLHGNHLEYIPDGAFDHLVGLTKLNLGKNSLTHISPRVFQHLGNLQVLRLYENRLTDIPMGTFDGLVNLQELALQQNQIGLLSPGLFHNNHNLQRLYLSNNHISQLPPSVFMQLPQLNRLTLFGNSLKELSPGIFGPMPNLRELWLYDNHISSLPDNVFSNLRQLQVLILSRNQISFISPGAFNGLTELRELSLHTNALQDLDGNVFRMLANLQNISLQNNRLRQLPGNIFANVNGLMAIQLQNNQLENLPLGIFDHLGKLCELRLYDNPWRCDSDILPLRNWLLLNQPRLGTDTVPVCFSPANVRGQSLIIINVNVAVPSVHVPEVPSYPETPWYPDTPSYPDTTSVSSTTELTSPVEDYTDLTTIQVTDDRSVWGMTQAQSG

B1: MYT8094 (antibody, IgG1, V domains shown)
VH: EVQLVESGGGLVQPGGSLRLSCTASGFSFSSSHWICWVRQAPGKGLEWVGCIYAGSIGSTYYASWAKGRFTISRDTSKNTVYLQMNSLRAEDTAVYYCARAPNDIYNYYFNLWGQGTLVTVSS
VL: EIVMTQSPSTLSASVGDRVIITCQASENIYNYLAWYQQKPGKAPKLLIYYASTLASGVPSRFSGSGSGAEFTLTISSLQPDDFATYYCQSGYVSKSSTFGQGTKLTVL
B2: MYT9521 (antibody, V domains shown)
VH: B1 VH
VL: B1 VL with T53D
B3: MYT8391 (antibody, V domains shown)
VH: EVQLVESGGGLVQPGGSLRLSCTASGLDFRRTNYICWVRQAPGKGLEWVGCIYIADVVHYYASWAKGRFTFSRDTSKNTVYLQMNSLRAEDTAVYYCARGADGGFHYGMDLWGQGTLVTVSS
VL: EIVMTQSPSTLSASVGDRVIITCQASQSIGNYLSWYQQKPGKAPKRLIYSASTLPSGVPSRFSGSGSGAEFTLTISSLQPDDFATYYCQNNYWLAGYGHPFGQGTKLTVL
B4: MYT8416 (antibody, V domains shown)
VH: B3 VH with H106V
VL: B3 VL with W93H
B5: MYT8500 (antibody, V domains shown)
VH: EVQLVESGGGLVQPGGSLRLSCTASGFSFSGSYWICWVRQAPGKGLEWVGCINGGSHDITYYASWAKGRFTISRDTSKNTVYLQKTSLRAEDTAVYYCASDTSYTAYGNFYFNLWGQGTLVTVSS
VL: EIVMTQSPSPLSASVGDRVIITCQSSQSVLNNNWLAWYQQKPGKAPKLLIYDASSLASGVPSRFSGSGSGAEFTLTISSLQPDDFATYYCQGEFSCGSADCNAFGQGTKLTVL
B6: MYT9725 (antibody, V domains shown)
VH: B1 VH with N111E
VL: B1 VL
notes: also called hu29F1 VH N111E
B7: MYT9722 (antibody, V domains shown)
VH: B1 VH with Y108E
VL: B1 VL
notes: also called hu29F1 VH Y108E
B8: MYT9726 (antibody, V domains shown)
VH: B1 VH with L112E
VL: B1 VL
notes: also called hu29F1 VH L112E
B9: MYT9716 (antibody, V domains shown)
VH: B1 VH with P102E
VL: B1 VL
notes: also called hu29F1 VH P102E
B10: MYT9724 (antibody, V domains shown)
VH: B1 VH with F110E
VL: B1 VL
notes: also called hu29F1 VH F110E
B11: MYT3315-c-ADC (antibody, human IgG1, kappa, V domains shown)
VH: EVQLVESGGGLVQPGGSLRLSCAVSGFSLTSYGVHWVRQATGKGLEWLGVIWAGGSTNYNSALMSRLTISKENAKSSVYLQMNSLRAGDTAMYYCATHMITEDYYGMDYWGQGTTVTVSS
VL: DIVMTQSPDSLAVSLGERATINCKSSQSLLNSRTRKNYLAWYQQKPGQSPKLLIYWASTRHSGVPDRFSGSGSGTDFTLTISSLQAEDVAVYYCKQSYNLPTFGGGTKVEIKR
modifications: vcMMAE conjugated to the cysteine at position 205 of the light chain
B12: MYT8391-c-ADC (antibody, human IgG1, kappa, V domains shown)
VH: B3 VH
VL: EIVMTQSPSTLSASVGDRVIITCQASQSIGNYLSWYQQKPGKAPKRLIYSASTLPSGVPSRFSGSGSGAEFTLTISSLQPDDFATYYCQNNYWLAGYGHPFGQGTKLTVLR
modifications: vcMMAE conjugated to the cysteine at position 205 of the light chain
B13: MYT8415-c-ADC (antibody, human IgG1, kappa, V domains shown)
VH: B3 VH with H106V
VL: B12 VL with Y92H
modifications: vcMMAE conjugated to the cysteine at position 205 of the light chain
B14: MYT8417-c-ADC (antibody, human IgG1, kappa, V domains shown)
VH: B3 VH with H106V
VL: B12 VL with G96H
modifications: vcMMAE conjugated to the cysteine at position 205 of the light chain
B15: MYT9776-c-ADC (antibody, human IgG1, kappa, V domains shown)
VH: B5 VH with S32H, N53H
VL: EIVMTQSPSPLSASVGDRVIITCQSSQSVLNNNWLAWYQQKPGKAPKLLIYDASSLASGVPSRFSGSGSGAEFTLTISSLQPDDFATYYCQGEFSCGSADCNAFGQGTKLEIKR
modifications: vcMMAE conjugated to the cysteine at position 205 of the light chain
B16: MYT8483-c-ADC (antibody, human IgG1, kappa, V domains shown)
VH: B5 VH with H57L
VL: B15 VL with E111T, I112V, K113L
modifications: vcMMAE conjugated to the cysteine at position 205 of the light chain
B17: MYT9731 (antibody, V domains shown)
VH: B1 VH
VL: B1 VL with N28E

These binders were tested against T1, LRRC15 on the surface of LRRC15+ cells … (assay: cell-based or functional assay).

Internalization in SAOS-2 cells (10 nM, 24 hours), FOB = fold over background (IgG control) | Internalization in SAOS-2 cells (10 nM, 24 hours), FOS = fold over samrotamab | Binder
3.15 fold over background (IgG control) | 1.32 fold over samrotamab | B1
3.02 fold over background (IgG control) | 1.24 fold over samrotamab | B2
2.94 fold over background (IgG control) | 1.2 fold over samrotamab | B3
2.71 fold over background (IgG control) | 1.05 fold over samrotamab | B4
2.68 fold over background (IgG control) | 1.03 fold over samrotamab | B5

Each binder was assayed against T2, Human LRRC15 Protein, His Tag (Acro …) (assay: BLI; dissociation pH 7.4 black, pH 5.4 grey [2/2); D00026 FIG. 6B (2/2]).

binding result | Binder
binds | B6
binds | B7
binds | B8
binds | B9
binds | B10

Target: T1, LRRC15 on the surface of LRRC15+ cells …
Test: cell-based or functional assay
Remark: another data set of the same source

Internalization in U87MG cells (10 nM, 24 hours), FOB = fold over background (IgG control) | Internalization in U87MG cells (10 nM, 24 hours), FOS = fold over samrotamab | Binder
3.52 fold over background (IgG control) | 2.94 fold over samrotamab | B1
3.42 fold over background (IgG control) | 2.82 fold over samrotamab | B2
3.13 fold over background (IgG control) | 2.49 fold over samrotamab | B3
3.05 fold over background (IgG control) | 2.39 fold over samrotamab | B4
2.65 fold over background (IgG control) | 1.93 fold over samrotamab | B5

Target: T1, LRRC15 on the surface of LRRC15+ cells …
Test: cell-based or functional assay
Remark: another data set of the same source

Binder | 20 nM Efficacy (cytotoxicity of candidates against SAOS-2 cells)
B11 | 22
B12 | 63.8
B13 | 38.7
B14 | 42.5
B15 | 66.3
B16 | 29.4

Target: T1, LRRC15 on the surface of LRRC15+ cells …
Test: cell-based or functional assay
Remark: another data set of the same source

Binder | Cytotoxicity against SAOS-2 cells, Fold over MYT5438 (mAb complexed with MMAF-conjugated secondary antibody, CTG assay)
B1 | 1.45 fold over MYT5438
B17 | 1.05 fold over MYT5438
B2 | 1.49 fold over MYT5438
B3 | 1.14 fold over MYT5438
B4 | 1.13 fold over MYT5438
B5 | 1.06 fold over MYT5438

From patent publication US20250352661A1 (MYTHIC THERAPEUTICS, published 2025)
